The record followed here is patent US20140120109A1 (Regeneron, published 2014).

What is called IC50 is the concentration at which inhibition is half-maximal. The Kd is the concentration at which binding is half-saturated.

Assay [1] concerns the target T1, Fhm, hTL1A(Q167R), soluble, CHO-expressed, residues 72-251 of SEQ ID NO:246 (human, UniProt O95150 72-251).
T1 construct: also called Fhm (CHO); FHM (CHO)
T1 chain: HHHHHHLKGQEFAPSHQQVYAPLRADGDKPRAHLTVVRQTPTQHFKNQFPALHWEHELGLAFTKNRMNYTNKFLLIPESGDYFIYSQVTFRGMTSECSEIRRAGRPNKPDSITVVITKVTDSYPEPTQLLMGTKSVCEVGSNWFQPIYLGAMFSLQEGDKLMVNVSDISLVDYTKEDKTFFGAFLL
Kind of assay: ELISA, blocks FHM (150 pM) binding hDR3-Fc. As to the method:
(§1) The ability of antibodies to block human TL1A binding to its cognate receptors, the DR3 and DcR3 receptors, was measured using a competition sandwich ELISA. In addition, blocking of a human TL1A variant FHM (human TL1A Q167R) and the cynomolgus monkey (Macaca fascicularis) TL1A (MfTL1A) protein binding to the human DR3 or DcR3 receptors was measured in the same manner. Constant amounts of biotinylated human TL1A or FHM (both expressed with a 6-His tag in CHO cells) or biotinylated MfTL1A (expressed in CHO cells) were separately titrated with varying amounts of antibodies. The antibody-protein complexes were incubated in solution (1 hr, 25° C.) and then transferred to microtiter plates coated with human DR3 (hDR3) or human DcR3 (hDcR3) expressed as human IgG1 Fc fusion proteins. After one hour at 25° C. the wells were washed, and bound human or monkey TL1A was detected with streptavidin conjugated with horseradish peroxidase (HRP). Wells were developed with a TMB solution to produce a colorimetric reaction and quenched with aqueous sulfuric acid before reading absorbance at 450 nm on a Perkin-Elmer Victor X5 plate reader. A sigmoidal dose-response curve was fit to the data using the Prism™ data analysis package. […] Both fully human anti-hTL1A mAbs and comparator antibodies, i.e., control mAb1 (an anti-hTL1A antibody with heavy and light chain variable domains having the amino acid sequences corresponding to SEQ ID NOS:21 and 27, respectively, of US 2009/0280116) and control mAb3 (an anti-hTL1A antibody with heavy and light chain variable domains having the amino acid sequences corresponding to SEQ ID NOS:57 and 48, respectively, of US 2009/0280116), were included in the study. NB: No binding under the conditions tested; NT: Not tested. Concentrations of biotinylated soluble ligands: (1) 150 pM; (2) 500 pM; (3) 10 pM; and (4) 50 pM.
On the technique in general: In an ELISA, binding on a coated surface is turned into a signal by an enzyme label.

Assay [2] has as its target T2, cynomolgus monkey TL1A, soluble, E. coli-expressed, residues 72-251 of SEQ ID NO:248 (cynomolgus monkey (Macaca fascicularis), UniProt O95150 72-251 (human entry)).
T2 construct: with or without N-terminal Met; also called MfTL1A (E. Coli)
T2 chain: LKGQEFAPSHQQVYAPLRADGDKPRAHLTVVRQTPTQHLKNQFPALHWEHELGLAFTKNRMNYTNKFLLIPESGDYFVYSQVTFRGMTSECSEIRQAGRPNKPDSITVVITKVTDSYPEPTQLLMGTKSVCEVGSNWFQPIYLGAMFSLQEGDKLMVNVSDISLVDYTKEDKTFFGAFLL
As to the kind of experiment: SPR 37C, mAb captured. Here is the method: (§2) Measurements were conducted on a T100 BIACORE™ instrument. […] Kinetic association (kₐ) and dissociation (kd) rate constants were determined by fitting the data to a 1:1 binding model using BIAevaluation 4.1 curve fitting software (BIAcore Life Sciences). Molar concentrations of TL1A/Fhm used in the data fitting assumed a monomeric state for TL1A in solution. Binding dissociation equilibrium constants (KD) and dissociative half-lives (t_{1/2}) were calculated from the kinetic rate constants as: KD (M)=kd/kₐ; and t_{1/2} (min)=[In2/(60*kd)].

Assay [3] deals with T3, cynomolgus monkey TL1A, soluble, CHO-expressed, residues 72-251 of SEQ ID NO:248 with N-terminal His6-tag (cynomolgus monkey (Macaca fascicularis), UniProt O95150 72-251 (human entry)).
T3 construct: also called MfTL1A; MfTL1A (CHO)
T3 chain: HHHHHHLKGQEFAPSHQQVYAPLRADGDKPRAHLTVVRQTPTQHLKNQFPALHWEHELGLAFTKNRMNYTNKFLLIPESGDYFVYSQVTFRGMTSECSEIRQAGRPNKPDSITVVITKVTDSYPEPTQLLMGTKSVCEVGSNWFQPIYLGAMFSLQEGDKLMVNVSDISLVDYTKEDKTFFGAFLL
As to the kind of experiment: ELISA, blocks MfTL1A (500 pM) binding hDR3-Fc. Here is the method:
as §1

Assay [4] concerns the target T4, mouse TL1A, soluble, E. coli-expressed, residues 76-252 of SEQ ID NO:250 (mouse, UniProt Q5UBV8 76-252).
T4 construct: with or without N-terminal Met; also called mTL1A (E. Coli)
T4 sequence: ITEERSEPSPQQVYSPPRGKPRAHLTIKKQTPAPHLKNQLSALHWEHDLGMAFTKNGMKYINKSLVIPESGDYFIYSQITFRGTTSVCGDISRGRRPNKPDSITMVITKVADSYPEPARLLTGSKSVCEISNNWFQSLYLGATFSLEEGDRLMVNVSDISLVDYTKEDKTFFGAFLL
As to the kind of experiment: SPR 25C, steady state. As to the method:
Measurements were conducted on a T100 BIACORE™ instrument. […] Kinetic association (kₐ) and dissociation (kd) rate constants were determined by fitting the data to a 1:1 binding model using BIAevaluation 4.1 curve fitting software (BIAcore Life Sciences). Molar concentrations of TL1A/Fhm used in the data fitting assumed a monomeric state for TL1A in solution. […]

Assay [5] concerns the target T5, human TL1A, soluble, CHO-expressed, residues 72-251 of SEQ ID NO:244 with N-terminal His6-tag (human, UniProt O95150 72-251).
T5 construct: also called hTL1A; hTL1A (CHO)
T5 sequence: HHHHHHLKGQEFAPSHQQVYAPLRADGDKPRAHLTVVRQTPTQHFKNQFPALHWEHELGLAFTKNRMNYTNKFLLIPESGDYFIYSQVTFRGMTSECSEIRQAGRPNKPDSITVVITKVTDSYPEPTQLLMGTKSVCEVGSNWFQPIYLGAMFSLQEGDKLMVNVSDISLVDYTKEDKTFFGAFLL
Kind of assay: ELISA, blocks hTL1A (150 pM) binding hDR3-Fc. As to the method: as §1

The target in assay [6] is T3, cynomolgus monkey TL1A, soluble, …. As to the kind of experiment: ELISA, blocks MfTL1A (50 pM) binding hDcR3-Fc. As to the method:
as §1

Assay [7] addresses T6, Fhm, hTL1A(Q167R), soluble, E. coli-expressed, residues 72-251 of SEQ ID NO:246 (human, UniProt O95150 72-251).
T6 construct: with or without N-terminal Met
T6 chain: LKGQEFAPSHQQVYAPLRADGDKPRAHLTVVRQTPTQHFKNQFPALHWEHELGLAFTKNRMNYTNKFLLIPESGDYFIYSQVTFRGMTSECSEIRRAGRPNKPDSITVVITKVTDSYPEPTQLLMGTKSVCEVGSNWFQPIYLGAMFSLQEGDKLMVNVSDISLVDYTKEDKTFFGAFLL
Kind of assay: SPR 25C, mAb captured. Here is the method: as §2

In assay [8] the target is T2, cynomolgus monkey TL1A, soluble, E. …. As to the kind of experiment: SPR 25C, mAb captured. Here is the method:
as §2

Assay [9] concerns the target T5, human TL1A, soluble, CHO-expressed, …. Kind of assay: ELISA, blocks hTL1A (10 pM) binding hDcR3-Fc. As to the method:
as §1

Assay [10] has as its target T1, Fhm, hTL1A(Q167R), soluble, …. As to the kind of experiment: ELISA, blocks FHM (10 pM) binding hDcR3-Fc. Here is the method: as §1
For assay [11] the target is unchanged. As to the kind of experiment: ELISA, blocks FHM (10 pM) binding hDcR3-Fc; blocking of FHM binding to DcR3. As to the method:
as §1

Assay [12] concerns the target T7, human DR3, full-length, expressed on HEK293 NFkB-luciferase reporter cells (human, UniProt Q93038 25-417).
T7 sequence: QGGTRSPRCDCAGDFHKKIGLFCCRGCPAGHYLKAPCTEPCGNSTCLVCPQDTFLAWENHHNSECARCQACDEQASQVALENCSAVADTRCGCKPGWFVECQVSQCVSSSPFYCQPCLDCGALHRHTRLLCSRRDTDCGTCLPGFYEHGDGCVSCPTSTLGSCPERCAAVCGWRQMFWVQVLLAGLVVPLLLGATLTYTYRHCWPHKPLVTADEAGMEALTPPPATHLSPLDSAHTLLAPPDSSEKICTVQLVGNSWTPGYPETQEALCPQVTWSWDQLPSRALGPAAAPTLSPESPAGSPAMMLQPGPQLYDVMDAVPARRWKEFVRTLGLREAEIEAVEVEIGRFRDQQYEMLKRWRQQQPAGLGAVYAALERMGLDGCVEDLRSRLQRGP
As to the kind of experiment: cell-based or functional assay.

B1: H2M1817N (antibody, V domains shown)
VH: QVQLQQWGAGLLKPSETLSLTCAVSGGSFSDYFWTWIRQPPGKGLEWIGEISHSGRTNYNPSLKSRVTISVDTSMSQFSLKMTSVTAADSAVYYCARDYPNWVFDYWGQGTLVTVSS
VL: EIELTQSPGTLSLSPGEGATLSCRASQSVFNSYLAWYQQKPGQAPRLLIYGASRRATGIPDRFSGSGSGTDFTLTISRLEPGDFAVYFCQQYGNSPLTFGGGTKVEIK
notes: chimeric hybridoma antibody: human variable regions, mouse constant regions (mouse Fc)
Take B1: the IC50 came to 0.249 nM in assay [1]; 0.137 nM in [3]; 0.154 nM in [5]; 0.776 nM in assay [6]; 0.89 nM in assay [9]; 0.666 nM in [10]. Besides, the results for the Kd in assay [2], in assay [7] and in [8] were 1 nM, 0.451 nM and 1.25 nM, respectively. Besides, the t1/2 in assay [2] is 30 min; in [7] it was 57 min; in assay [8], 37 min. Further, the binding result in assay [4] is listed as “no binding (tested: up to 100 nM)”.

B2: H2M1805N (antibody, V domains shown)
VH: QVQLQQWGAGLLKPSETLSLTCAVYGGSFTGFYWSWIRQPPGKGLEWIGEINHRGNTNYNPSLKSRVTMSVDTSKNQFSLNMISVTAADTAMYFCASPFYDFWSGSDYWGQGTLVTVSS
VL: DIMLTQTPLTSPVTLGQPASISCKSSQSLVHSDGNTYLSWLQQRPGQPPRLLFYKISNRFSGVPDRFSGSGAGTDFTLKISRVEAEDVGVYYCMQATQFPLTFGGGTKVEIK
notes: as for B1
For B2, the results for the Kd in assay [2] and in assay [8] were 0.439 nM and 0.345 nM, respectively. Also, the t1/2 in assay [2] amounted to 36 min; in assay [8] it was 67 min. Besides, the concentration for half-maximal inhibition (IC50) was found to be 2.24 nM in assay [11]; 0.013 nM in assay [3]; 0.006 nM in assay [5]; 1.14 nM in assay [6]; 0.012 nM in assay [9]. The binding result in [4] and in assay [7] was “no binding (tested: up to 100 nM)” throughout.

B3: H2M1681N (antibody, V domains shown)
VH: EVQLLESGGGLVQPGKSLRLSCAVSGFTFSTYGMNWVRQAPGKGLEWVSSISGTGRTTYHADSVQGRFTVSRDNSKNILYLQMNSLRADDTAVYFCTKERGDYYYGVFDYWGQGTLVTVSS
VL: DIQMTQSPSTLSASVGDRVTITCRASQTISSWLAWYQQTPEKAPKLLIYAASNLQSGVPSRFSGSGSGTEFTLTISSLQPDDFATYYCQQYHRSWTFGQGTKVEIT
As to B3, the Kd in assay [2] was found to be 1.5 nM; in [8], 0.546 nM. In addition, the t1/2 stood at 14 min in [2] and 54 min in [8]. In addition, the IC50 in [11] came to 0.234 nM; in [3] it was 0.061 nM; in [5] it was 0.037 nM; in assay [6], 0.149 nM; in [9], 0.013 nM. Besides, the binding result in [4] and in assay [7] was “no binding (tested: up to 100 nM)” in each case.

B4: full length human TL1A expressed on HEK293 cells (ligand)
chain: MAEDLGLSFGETASVEMLPEHGSCRPKARSSSARWALTCCLVLLPFLAGLTTYLLVSQLRAQGEACVQFQALKGQEFAPSHQQVYAPLRADGDKPRAHLTVVRQTPTQHFKNQFPALHWEHELGLAFTKNRMNYTNKFLLIPESGDYFIYSQVTFRGMTSECSEIRQAGRPNKPDSITVVITKVTDSYPEPTQLLMGTKSVCEVGSNWFQPIYLGAMFSLQEGDKLMVNVSDISLVDYTKEDKTFFGAFLL
B4: the “EC50 (cells), NFkB-luciferase reporter” value in assay [12] amounted to 23500 cells.
